Results: the DeepSol protein solubility set

Assay: soluble on expression in E. coli; label from the status in PepcDB or PDB records

Sequence	soluble on expression in E. coli
MKDGEAATGQAASRPKRADARRNEKNLLDAAAAVFVRSGVEAPVRDIAAEAGVGTATIYRHFPTRADLIIGVYRHQVEACAEAGPALLASSPTPYAALAGWIDLFVDFLVTKHGLAAVLQSDSAGFETLHAYFLDRLVPVCTDLLAAATDSGEIDTDVPPLALMRGVGNLCIGAETPNPSYDARQLVRILIAGLRAAD	not soluble
MKDIIIASFYKFIPLNDFESLREPILTKMHEIGIKGTIILAHEGVNGGFAGNREQMNVFYDYLRSDSRFADLHFKETYDNKNPFDKAKVKLRKEIVTMGVQKVDPSYNAGTYLSPEEWHQFIQDPNVILLDTRNDYEYELGTFKNAINPDIENFREFPDYVQRNLIDKKDKKIAMFCTGGIRCEKTTAYMKELGFEHVYQLHDGILNYLESIPESESLWEGKCFVFDDRVAVDQKLDRVYPQLPQDYKYEREQK	not soluble
MKDLIIIGAGQAGLTMGYYLKQEGYNFLLLEAGKRVGDSWRNRYDSLQLFTPRSYSSLPGMALIGEKNEFPYKDEIATYLEEYARHFQLPVQLQTEVLKIKKEKEIFELHTPTEILQTKKVIIASGAFQQPFIPSVSANLSSHIFQIHSSQYKSPSQIPKGKVLVVGGGNSGMQIAVELAKTHEVTVSISHPLTFLPLQLFGKSIFNLLEKVGLLYAEINTKRGRWFQKRKDPIFGFEGKKLIRNGAIKLQEKVVSASRNNIMFQNGDTYSAESIIWSTGFVQNYNWIEIEQAVNEKGFPNHIKGISPVKGLYYIGLPLEHHHHHH	not soluble
MKDMKTIEGIIVVTTPEIPGYKVVEVKGVARGGTVRATHIGRDIMALLRNLKGGEVKEYTEMMAEAREEALRRMALHAKELGANAVVNFRFATSNLGGSMAEIYAYGTAVVVERVEK	soluble
MKDPKAPIGVFDSGVGGLTVLKALRRLLPREEFLYFGDTARVPYGGKPLAMVRRFAWEIAGFLLRQGVKAIVVACNTASSAALPDLAEDLSVPVFGVVEPVARAVRGFRKVGLIGTQATVESGAYPRYVDLACAKACPLFVPLVEEGLWDDPVALLVARHYLEDAPKDLEALILGCTHYPFLKGAIGAVLPGVALLDSAELTAQEVARALEAEGLLNPEGRGRTFHLVTGDPEAYRALAERLGERVEAVRRVSLEEL	soluble
MKDRYLIIDGYNMIGQSQELSRIAQDNLEEAREQLLIAIANYNAVIADEVVCVFDAYEQSGAPTEYMYHGVKTIFTKEKETADSYIERYVYDLYDKHTRHITVVTSDMSEQHAIFGAGAYRVSSREMWRDLRENEISVSKKLDGFNEQKPRTRIELSNEILEEFEKLRRGDNHLEHHHHHH	not soluble
MKDYRYALPAMMSVRKGESRYFNRGDQHLMNEILARVRAEGKIRLRDIDKKNKESLGNWWNTGPGRRAFEQLYMQGDLMICERNGMEKVYDLTERCLPENIDLSLPTLYEYAQYLFNNTLRAHGAFTWKQLVHLKKNDLKETMRVVLKEQIDAGVVSAIKLADGQNLYVDVTAIEQQLDTDFGLKILSPFDNSLIHRDRLTSLFEFDYRIECYLPAAKRVFGYFCLPILYQNELVGRIDCKAHRTVKELEVISLHLEKTVKDKEHFFFELDQELKRFAAFNQCSTVNDKVVKLIRSKLLEHHHHHH	not soluble
MKEHSIDIQLSHPDDLFHLFGSNERHLRLMEEELDVVIHARTEIVQVLGEESACEEARQVIQALMVLVNRGMTVGTPDVVTAISMVKNDEIDKFVALYEEEIIKDNTGKPIRVKTLGQKLYVDSVKQHDVTFGIGPAGTGKTFLAVTLAVTALKRGQVKRIILTRPAVEAGESLGFLPGDLKEKVDPYLRPVYDALYQILGKDQTTRLMEREIIEIAPLAYMRGRTLDDAFVILDEAQNTTIMQMKMFLTRLGFHSKMIVNGDISQIDLPRNVKSGLIDAQEKLKNIHQIDFVHFSAKDVVRHPVVAQIIRAYEYSTEVAHD	not soluble
MKEIELIATAAAGVESVVKHEVKKLGFKDITVDNGKIMFKGDISSIPRANLWLRSADRVLLKMGEFEALTFEELFDKTYALPWDQWITSDGKFTVLGKSVKSKLFSISDCQAIVKKAVVEKLKSKYHVEWFEESGPEYTIQVALHKDIATLTIDTSGTALHKRGYRAKNVEAPIKETLASAMILISYWNKRKPLWDCFCGSGTIPIEAALIGRNIAPGLNRTFASEEWPAIGKDIWKQERALALRAIDHDIKLKIYGSDINPDAIELAKENACLAGVDDCIEFFVSDFRNVNIKEDYGVIICNPPYGERIGEQQEVETINKDMGKTFSKYDTWSKYIITPFENFERLYGKKADKKRKFYNGNIKVDYYQYFGPKPTNT	soluble
MKEKIALITGVTGQDGSYLAEYLLNLGYEVHGLKRRSSSINTSRIDHLYEDLHSDHKRRFFLHYGDMTDSSNLIHLIATTKPTEIYNLAAQSHVKVSFETPEYTANADGIGTLRILEAMRILGLEKKTRFYQASTSELYGEVLETPQNENTPFNPRSPYAVAKMYAFYITKNYREAYNLFAVNGILFNHESRVRGETFVTRKITRAASAIAYNLTDCLYLGNLDAKRDWGHAKDYVKMMHLMLQAPIPQDYVIATGKTTSVRDFVKMSFEFIGINLEFQNTGIKEIGLIKSVDEKRANALKLNLSHLKKGQIVVRIDERYFRPTEVDLLLGDPTKAEKELDWVREYDLKELVKDMLEYDLKECQKNLYLQDGGYILRNFYE	soluble
MKEKIPFYNEKEFHDMVKKTKKGTFSGWYIIDKDNKSVEFSGSFNRQFKLNKPVIPVNTEYVTRKEFNEYKVSNDQRLTKIETTLAAQGEQINKLTQTVEKQGEQINQLVQVVLLHGEQINKLTQTVEKQGEQIKELQVEQKAQGEQIKAQGKQIKAQGKTLKSILQALGGINKRLDKIDPPKLEHHHHHH	not soluble
MKEKYKKSLYIPNELLLEIFADKNLDIQNIIVVSMVCKLWYELSLDNAVWRPLFIKRFSYSPTLANHSIFKEDYQKQLALTQAMKKKCESNHACRNEPGLLEAIREKNIPLIYALFESGHRIIIDSFPDGEQQFTEEMLGFLSECAELPSSLLARIFKRGFCTADMETSEFLALHFIVAEADEKLLQKIFRALGDDLLSVSRYCDLYDNNFFSSLLHFPVERFSLVLRLLYETLGKTKLSTLLVYQNHTYTDWSCIHSASRCGREYFFITLKYLKRQDYPVLLKKGLNDEDIPLFNIAYWGDKESLSHIINILGADATTFLKYKDNKGRNILLPALLSEDHSTVELIEKVMGMEFIDLLLMQDTNGRDILRRVMLLQEPTVLRRINTVLKLLRDYDCLDIAQELYSSDEFTQLISQNLYINQDETIELFNKYTEEKTNNFCSIL	not soluble
MKENDLIPNVKVMIDVRNMNNISDTDGSPNDFTSIDTHELFNNKKILLISLPGAFTPTCSTKMIPGYEEEYDYFIKENNFDDIYCITNNDIYVLKSWFKSMDIKKIKYISDGNSSFTDSMNMLVDKSNFFMGMRPWRFVAIVENNILVKMFQEKDKQHNIQTDPYDISTVNNVKEFLKNNQL	soluble
MKETNAGSVYSPELIEFATVGVEFCALVEQAAAHRTTDFIDKASKVLPLLYLKTALLPPYEYSEEVDFVEEYITEESYEQVRSAVESLLGSYDSFLDARHSDMQYSDTPVGASIGECLADVYQQVGNLLGVVRQSNDRAIPQAIGRCLTYFGEYWGNRLLAAAGALHELRYSEVYRTWEEEERAED	soluble
MKEVARVRNLNRIIMGKYEIEPWYFSPYPIELTDEDFIYIDDFTLQYFGSKKQYERYRKKCTLRHPPGNEIYRDDYVSFFEIDGRKQRTWCRNLCLLSKLFLDHKTLYYDVDPFLFYCMTRRDELGHHLVGYFSKEKESADGYNVASILTLPQYQRMGYGKLLIEFSYELSKKENKVGSPEKPLSDLGLLSYRAYWSDTLITLLVEHQKEITIDEISSMTSMTTTDILHTAKTLNILRYYKGQHIIFLNEDILDRYNRLKAKKRRTIDPNRLIWKPPV	soluble
MKEYLTNERIRAKQVRVVGPDGKQLGIMDTREALRLAQEMDLDLVLVGPNADPPVARIMDYSKWRYEQQMAEKEARKKAKRTEVKSIKFRVKIDEHDYQTKLGHIKRFLQEGHKVKVTIMFRGREVAHPELGERILNRVTEDLKDLAVVEMKPEMLGRDMNMLLAPVKVSA	soluble
